Columns and labels:
[1] = ex vivo biodistribution, PSMA+ PC3 PIP tumor; assay type: in vivo, severe-combined immune-deficient (SCID) mice; conditions: SCID, mouse, PSMA+ PC3-PIP tumor
PSMA+ PC3-PIP xenografts = experiment: ex vivo biodistribution, PSMA+ PC3 PIP tumor; assay type: in vivo, severe-combined immune-deficient (SCID) mice; conditions: for PIP:flu uptake ratio: PSMA+ PIP to PSMA− flu tumor
[2] = tested on: PSMA+ PC3-PIP and PSMA− PC3-flu xenografts; experiment: sequential SPECT-CT and optical; assay type: in vivo, severe-combined immune-deficient (SCID) mice
in vivo = conditions: SCID, mouse, PSMA− PC3-flu tumor
[3] = ex vivo biodistribution, normal tissues; conditions: for tissue uptake at 1 h / tissue uptake at 2 h / tissue uptake at 5 h / tissue uptake at 24 h: SCID, mouse
PSMA [4] = target: T1, PSMA (Homo sapiens, UniProt Q04609); experiment: blocking of uptake with ZJ43; assay type: in vivo; conditions: blocking dose 50 mg/Kg ZJ43 (Figure S9)
T1 sequence (Q04609 whole entry): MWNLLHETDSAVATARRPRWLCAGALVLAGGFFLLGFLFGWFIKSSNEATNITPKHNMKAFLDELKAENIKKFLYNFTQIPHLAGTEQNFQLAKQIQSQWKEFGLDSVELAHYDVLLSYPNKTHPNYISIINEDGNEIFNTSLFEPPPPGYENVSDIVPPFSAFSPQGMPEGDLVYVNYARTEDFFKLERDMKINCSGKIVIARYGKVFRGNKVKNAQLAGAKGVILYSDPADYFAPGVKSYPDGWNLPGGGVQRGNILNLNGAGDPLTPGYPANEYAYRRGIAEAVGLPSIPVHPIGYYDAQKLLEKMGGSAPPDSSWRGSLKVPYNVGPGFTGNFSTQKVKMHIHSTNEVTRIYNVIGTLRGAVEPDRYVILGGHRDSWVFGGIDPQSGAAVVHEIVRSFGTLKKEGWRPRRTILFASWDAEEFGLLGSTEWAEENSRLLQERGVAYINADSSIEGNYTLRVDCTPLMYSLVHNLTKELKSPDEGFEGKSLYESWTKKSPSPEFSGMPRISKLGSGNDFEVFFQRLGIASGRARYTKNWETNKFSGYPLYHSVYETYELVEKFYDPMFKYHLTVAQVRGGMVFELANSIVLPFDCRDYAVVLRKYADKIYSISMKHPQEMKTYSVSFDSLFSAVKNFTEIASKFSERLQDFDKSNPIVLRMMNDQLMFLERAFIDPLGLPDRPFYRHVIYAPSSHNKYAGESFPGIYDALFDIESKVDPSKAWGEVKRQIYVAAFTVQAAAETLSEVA

[5] = electronic absorption and fluorescence spectroscopy; assay type: physicochemical; conditions: for emission maximum / fluorescence lifetime: aqueous solution; for extinction coefficient: at absorbance maximum 776 nm; for absorbance maximum: electronic spectra; for quantum yield: in PBS
PSMA [6] = target: T1, PSMA; experiment: fluorescence-based PSMA inhibition assay; assay type: biochemical

In the case of CC1(C)C(=CC=C2CCCC(C=CC3=[N+](CCCCS(=O)(=O)O)c4ccc(S(=O)(=O)[O-])cc4C3(C)C)=C2Oc2ccc(S(=O)(=O)O)cc2)N(CCCCCC(=O)NCCCC[C@H](NC(=O)CN2CCN(CC(=O)O)CCN(CC(=O)O)CCN(CC(=O)O)CC2)C(=O)N[C@@H](CCCCNC(=O)CCCCCCC(=O)NCCCC[C@H](NC(=O)N[C@@H](CCC(=O)O)C(=O)O)C(=O)O)C(=O)O)c2ccc(S(=O)(=O)O)cc21 (single isomer, unassigned) [[^111In]1, metal not drawn], the tissue uptake at 1 h [1] is reported as 13.9 ± 1.9 %ID/g, the tissue uptake at 2 h [1] is reported as 13.3 ± 2.4 %ID/g and the tissue uptake at 5 h [1] is reported as 16.4 ± 3.7 %ID/g. The tissue uptake at 24 h [1] was 14.6 ± 1.3 %ID/g, the “PIP:flu uptake ratio” value (PSMA+ PC3-PIP xenografts; 1h) was 6.7 and the “PIP:flu uptake ratio” value (PSMA+ PC3-PIP xenografts; 2h) was 6.3. For the same compound, the “PIP:flu uptake ratio” value (PSMA+ PC3-PIP xenografts; 5h) was 8.7, the “PIP:flu uptake ratio” value (PSMA+ PC3-PIP xenografts; 24h) was 7.4 and the “binding and accumulation in PSMA+ PC3-PIP xenografts, in words” value (PSMA+ PC3-PIP xenografts; biodistribution, up to 24 h) was “PSMA dependent binding in PSMA+ PC3-PIP xenografts with rapid accumulation at the tumor site that persisted throughout the course of the experiment”. The “radiotracer uptake on in vivo imaging” value ([2]; 37 MBq IV, imaged repeatedly over two days) was “Intense radiotracer uptake was seen only in the PSMA+ PIP tumors and in the kidneys”, the “tumor visualization by NIRF imaging” value ([2]; single injection of ~0.22 μg (0.1 nmol)) was “able to visualize tumor with NIRF imaging” and the tissue uptake at 1 h (in vivo) was 2.1 ± 0.7 %ID/g. It also gave a tissue uptake at 2 h (in vivo) of 2.1 ± 0.5 %ID/g, a tissue uptake at 5 h (in vivo) of 1.9 ± 0.2 %ID/g and a tissue uptake at 24 h (in vivo) of 2 ± 0.2 %ID/g. For the same compound, the “tissues with highest uptake at 1 h” value ([3]; 1 h) was “The blood, spleen, gastrointestinal tract, kidney and bladder displayed the highest uptake at 1 h”, the “kidney clearance, in words” value ([3]; 1 h to 24 h) was “Steady clearance from the kidneys” and the tissue uptake at 1 h ([3]; bladder) was 4.1 ± 1.7 %ID/g. For the same compound, the tissue uptake at 2 h ([3]; bladder) was 2.7 ± 1 %ID/g, the tissue uptake at 5 h ([3]; bladder) was 1.1 ± 0.6 %ID/g and the tissue uptake at 24 h ([3]; bladder) was 2 ± 0.5 %ID/g. The tissue uptake at 1 h ([3]; blood) was 9.9 ± 5 %ID/g, the tissue uptake at 2 h ([3]; blood) was 7.1 ± 1.2 %ID/g and the tissue uptake at 5 h ([3]; blood) was 4.1 ± 0.8 %ID/g. For the same compound, the tissue uptake at 24 h ([3]; blood) was 0.9 %ID/g, the tissue uptake at 1 h ([3]; heart) was 3.3 ± 0.5 %ID/g and the tissue uptake at 2 h ([3]; heart) was 1.8 ± 0.3 %ID/g. The tissue uptake at 5 h ([3]; heart) was 1.8 ± 0.1 %ID/g, the tissue uptake at 24 h ([3]; heart) was 0.8 ± 0.1 %ID/g and the tissue uptake at 1 h ([3]; kidney) was 104 ± 9.4 %ID/g. For the same compound, the tissue uptake at 2 h ([3]; kidney) was 97.1 ± 13 %ID/g, the tissue uptake at 5 h ([3]; kidney) was 122 ± 21.6 %ID/g and the tissue uptake at 24 h ([3]; kidney) was 48.1 ± 17.7 %ID/g. The tissue uptake at 1 h ([3]; large intestine) was 1.5 ± 0.5 %ID/g, the tissue uptake at 2 h ([3]; large intestine) was 1.3 ± 0.3 %ID/g and the tissue uptake at 5 h ([3]; large intestine) was 0.8 ± 0.5 %ID/g. It also gave a tissue uptake at 24 h ([3]; large intestine) of 2 ± 0.4 %ID/g, a tissue uptake at 1 h ([3]; liver) of 2.4 ± 0.1 %ID/g and a tissue uptake at 2 h ([3]; liver) of 2.2 %ID/g. For the same compound, the tissue uptake at 5 h ([3]; liver) was 3.2 ± 1.2 %ID/g, the tissue uptake at 24 h ([3]; liver) was 3.1 ± 0.4 %ID/g and the tissue uptake at 1 h ([3]; muscle) was 1.2 ± 0.6 %ID/g. It also gave a tissue uptake at 2 h ([3]; muscle) of 0.7 ± 0.2 %ID/g, a tissue uptake at 5 h ([3]; muscle) of 0.9 ± 0.2 %ID/g and a tissue uptake at 24 h ([3]; muscle) of 0.4 %ID/g. For the same compound, the tissue uptake at 1 h ([3]; pancreas) was 2.1 ± 0.1 %ID/g, the tissue uptake at 2 h ([3]; pancreas) was 1.3 ± 0.3 %ID/g and the tissue uptake at 5 h ([3]; pancreas) was 2 ± 1 %ID/g. The tissue uptake at 24 h ([3]; pancreas) was 1 ± 0.3 %ID/g, the tissue uptake at 1 h ([3]; small intestine) was 1.8 ± 0.5 %ID/g and the tissue uptake at 2 h ([3]; small intestine) was 1.5 ± 0.2 %ID/g. It also gave a tissue uptake at 5 h ([3]; small intestine) of 1.6 ± 0.3 %ID/g, a tissue uptake at 24 h ([3]; small intestine) of 2 ± 0.7 %ID/g and a tissue uptake at 1 h ([3]; spleen) of 11.3 ± 3.7 %ID/g. For the same compound, the tissue uptake at 2 h ([3]; spleen) was 6.8 ± 0.9 %ID/g, the tissue uptake at 5 h ([3]; spleen) was 4.8 ± 2.4 %ID/g and the tissue uptake at 24 h ([3]; spleen) was 8.2 ± 5.4 %ID/g. It also gave a tissue uptake at 1 h ([3]; stomach) of 1.4 ± 0.3 %ID/g, a tissue uptake at 2 h ([3]; stomach) of 1.2 ± 0.1 %ID/g and a tissue uptake at 5 h ([3]; stomach) of 2.4 ± 1.8 %ID/g. The tissue uptake at 24 h ([3]; stomach) was 1 ± 0.1 %ID/g and the “blocking of uptake in PSMA+ PC3 PIP tumor and kidney by ZJ43” value (PSMA [4]) was “effective blocking in PSMA+ PC3 PIP tumor and kidney”.
For CC1(C)C(=CC=C2CCCC(C=CC3=[N+](CCCCS(=O)(=O)O)c4ccc(S(=O)(=O)[O-])cc4C3(C)C)=C2Oc2ccc(S(=O)(=O)O)cc2)N(CCCCCC(=O)NCCCC[C@H](NC(=O)CN2CCN(CC(=O)O)CCN(CC(=O)O)CCN(CC(=O)O)CC2)C(=O)N[C@@H](CCCCNC(=O)CCCCCCC(=O)NCCCC[C@H](NC(=O)N[C@@H](CCC(=O)O)C(=O)O)C(=O)O)C(=O)O)c2ccc(S(=O)(=O)O)cc21 (single isomer, unassigned) [[^113/^115In]1], the emission maximum [5] was 792 nm, the fluorescence lifetime [5] was 483 psec and the extinction coefficient [5] was 181,000 M^−1cm^−1. For the same compound, the “spectral properties of 1 versus [^113/^115In]1, in words” value ([5]; comparison of 1 and [^113/^115In]1) was “did not observe any significant changes in the spectral properties”, the absorbance maximum [5] was 776 nm and the quantum yield [5] was ~ 8.9%. The “PSMA inhibition, in words” value (PSMA [6]) was “potent inhibitors of PSMA”.
In the case of CC1(C)C(=CC=C2CCCC(C=CC3=[N+](CCCCS(=O)(=O)O)c4ccc(S(=O)(=O)[O-])cc4C3(C)C)=C2Oc2ccc(S(=O)(=O)O)cc2)N(CCCCCC(=O)NCCCC[C@H](NC(=O)CN2CCN(CC(=O)O)CCN(CC(=O)O)CCN(CC(=O)O)CC2)C(=O)N[C@@H](CCCCNC(=O)CCCCCCC(=O)NCCCC[C@H](NC(=O)N[C@@H](CCC(=O)O)C(=O)O)C(=O)O)C(=O)O)c2ccc(S(=O)(=O)O)cc21 (single isomer, unassigned) [Compound 1], the emission maximum [5] is reported as 792 nm, the fluorescence lifetime [5] is reported as 420 psec and the extinction coefficient [5] is reported as 181,000 M^−1cm^−1. For the same compound, the absorbance maximum [5] was 776 nm, the quantum yield [5] was ~ 8.9% and the “PSMA inhibition, in words” value (PSMA [6]) was “potent inhibitors of PSMA”.

— publication PMC3192196 (Angewandte Chemie (International Ed. in English), 2011)
